Laboratory results from publication PMC9893541 (BMC Biology, 2023).

How the values were obtained:
Experiment in all cases: SPR; BIAcore T-200; chimeric Fc-type 1 receptor coupled to a Series S Protein A chip; ligands 6.25-0.049 nM flowed at 50 uL/min, 300 s association, 1000 s dissociation; 20 mM HEPES pH 7.4, 350 mM NaCl, 0.005 % P-20, 0.5 mg/mL BSA, 3.4 mM EDTA; kinetic 1:1 fit (also a bivalent fit); apparent KD = kd/ka; average of N=2
Details in all cases: both partners purified
GDF5 homodimer = biological target: T1, GDF5 homodimer (human, UniProt P43026 382-501)
T1 construct: Growth and Differentiation Factor 5 (GDF5), mature domain; Dimer stabilised by an inter-chain disulfide bond; also called homodimeric GDF5; Growth and Differentiation Factor 5
T1 sequence (looked up): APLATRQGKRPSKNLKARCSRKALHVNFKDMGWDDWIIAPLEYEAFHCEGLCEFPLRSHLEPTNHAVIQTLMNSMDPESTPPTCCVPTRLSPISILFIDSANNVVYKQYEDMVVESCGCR

BMP2 homodimer = biological target: T2, BMP2 homodimer (human, UniProt P12643 283-396)
T2 construct: bone morphogenetic protein 2 (BMP2), mature domain; cDNA received from Hongwen Ma; Dimer stabilised by an inter-chain disulfide bond; Cloned in pET21a; no tag is mentioned; also called homodimeric BMP2; bone morphogenetic protein 2
T2 sequence (P12643 283-396): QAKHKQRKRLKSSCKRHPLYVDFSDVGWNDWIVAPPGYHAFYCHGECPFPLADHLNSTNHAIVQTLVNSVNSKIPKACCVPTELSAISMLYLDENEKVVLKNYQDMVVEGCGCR

BMP4 homodimer = biological target: T3, BMP4 homodimer (human, UniProt P12644 293-408)
T3 construct: additional Met residue on the N-terminus of the BMP4 construct; bone morphogenetic protein 4 (BMP4), mature domain; Dimer stabilised by an inter-chain disulfide bond; also called homodimeric BMP4
T3 sequence: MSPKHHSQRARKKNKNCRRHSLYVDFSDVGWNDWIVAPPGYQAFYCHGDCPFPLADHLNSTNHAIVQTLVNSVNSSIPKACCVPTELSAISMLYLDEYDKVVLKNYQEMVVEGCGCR

BMP4/GDF5 heterodimer = biological target: T4, BMP4/GDF5 heterodimer (human, UniProt P12644 293-408; P43026 382-501)
T4 construct: additional Met residue on the N-terminus of the BMP4 construct; bone morphogenetic protein 4 (BMP4), mature domain; Growth and Differentiation Factor 5 (GDF5), mature domain; Made by people from two natural mature chains; disulfide-linked dimer; also called GDF5/BMP4; copies: 1 + 1
T4 sequence 1: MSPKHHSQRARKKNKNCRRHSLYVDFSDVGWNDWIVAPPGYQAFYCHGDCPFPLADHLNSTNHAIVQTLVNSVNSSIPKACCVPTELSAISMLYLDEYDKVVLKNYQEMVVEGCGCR
T4 sequence 2: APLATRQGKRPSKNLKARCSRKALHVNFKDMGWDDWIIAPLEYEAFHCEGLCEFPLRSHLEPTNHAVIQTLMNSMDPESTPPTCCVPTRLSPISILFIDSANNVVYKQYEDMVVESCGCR

BMP2/GDF5 heterodimer = biological target: T5, BMP2/GDF5 heterodimer (human, UniProt P12643 283-396; P43026 382-501)
T5 construct: bone morphogenetic protein 2 (BMP2), mature domain; Growth and Differentiation Factor 5 (GDF5), mature domain; Made by people from two natural mature chains; disulfide-linked dimer; also called GDF5/BMP2; WT heterodimer; copies: 1 + 1
T5 sequence (P12643 283-396, one chain of several): as the sequence (P12643 283-396) above

Kd (GDF5 homodimer): 0.057 nM
Kd (BMP2 homodimer): 0.102 nM
Kd (BMP4 homodimer): 0.113 nM
Kd (BMP4/GDF5 heterodimer): 0.046 nM
Kd (BMP2/GDF5 heterodimer): 0.026 nM
B1: FC-(Alk6)2 (Fc fusion, UniProt O00238 14-126, looked up)
chain: KKEDGESTAPTPRPKVLRCKCHHHCPEDSVNNICSTDGYCFTMIEEDDSGLPVVTSGCLGLEGSDFQCRDTPIPHQRRSIECCTERNECNKDLHPTLPPLKNRDFVDGPIHHR
notes: type 1 receptor Alk6 (BMPR1B) in a recombinant chimeric Fc-receptor; also called chimeric FC-receptor; source: bought: R&D (Cat# 505-PR-100)
